Our source for the Kd values is article PMC5889866.

Assay [1] concerns the target minicollagen peptide H-Gly-Pro-Arg-Gly-(Pro-Hyp-Gly)12-NH2. The assay is described as follows: SPR; […] (BIACORE); […]; 10 mM sodium HEPES pH 7.4, 150 mM NaCl, 1 mM CaCl2, 0.005% Tween-20; 20 ul/min; 25 C; […]. (Surface plasmon resonance follows binding to a sensor surface in real time, without labels.)
Assay [2] has the same target. The assay is described as follows: SPR; minicollagen peptide amine-coupled on a CM5 chip (BIACORE); collagen anchors as analyte, eight concentrations 100 nM-300 uM; 10 mM sodium HEPES pH 7.4, 150 mM NaCl, 1 mM CaCl2, 0.005% Tween-20; 20 ul/min; 25 C; equilibrium responses fitted; apparent KD.

In the case of “CBD (s3) of Clostridium histolyticum class II collagenase ColH (domain or fragment)”, the Kd in assay [1] is 752 µM.
As for “CBD (s3b) of Clostridium histolyticum class I collagenase ColG (domain or fragment)”, in assay [2], the Kd was determined as 45.4 µM.
Consider “PKD-CBD (s2b-s3) of Clostridium histolyticum class II collagenase ColH (domain or fragment)”, for which the Kd in assay [1] was 445 µM.
On to “CBD-CBD (s3a-s3b) of Clostridium histolyticum class I collagenase ColG (domain or fragment)”, for which the Kd in assay [2] was 44.6 µM.
